Laboratory results taken from US20260258127A1 (YING MAI DE MEDICAL TECHNOLOGY GUANGDONG, published 2026).

What was measured:
[1] = molecular target: T1, CD3 (antigen of the anti-CD3 antibody, coated in the ELISA of Examples 1-3) (Homo sapiens (Human), UniProt P07766 23-126); assay: binding activity of the conjugated mutant compared with the wild-type antibody (ELISA as in Example 1)
T1 construct: also called antibody antigen
Experimental: In the present invention, the activity of each mutant with a point mutation compared to that of its initial antibody is detected by ELISA. Specifically, the 96-well plates were coated with antibody antigen overnight, then blocked with 1% BSA blocking agent (Thermo Fisher) at 37° C. for 2 hours, and washed with PBST for 3 times. The corresponding antibody or the corresponding mutant was added for binding at 37° C. for 1 hour, and then washed with PBST for 3 times. HRP enzyme-linked anti-human IgG was added for binding at 37° C. for 1 hour, and washed with PBST for 3 times. TMB substrate (Solarbio., Inc.) was used to detect absorbance at 450 nm. The effect on mutant binding strength was calculated through EC50 mutation/EC50 wild-type.

[2] = molecular target: T1, CD3 (antigen of the anti-CD3 antibody, …); assay: binding activity after conjugation with different R1; method not described (presumably ELISA)
[3] = molecular target: T1, CD3 (antigen of the anti-CD3 antibody, …); assay: binding activity after activation of the conjugate; method not described

T1 sequence (P07766 23-126 limits assumed, form in doubt): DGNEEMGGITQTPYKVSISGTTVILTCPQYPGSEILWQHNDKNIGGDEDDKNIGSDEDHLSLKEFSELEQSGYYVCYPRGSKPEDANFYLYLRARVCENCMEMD

Binder	Blocking fold after conjugation (+20K) [1]	further results
anti-CD3 antibody mutant VH-W111C conjugated with Molecule I (+20K) (antibody, V domains shown, Cys 111 conjugated with Molecule I (+20K), also called VH-111 W111 (+20K)) VH: EVQLVESGGGLVQPGGSLRLSCAASGFTFSTYAMNWVRQAPGKGLEWVGRIRSKYNNYATYYADSVKDRFTISRDDSKNSLYLQMNSLKTEDTAVYYCARHGNFGNSYVSCFAYWGQGTLVTVSS VL: QTVVTQEPSLTVSPGGTVTLTCRSSTGAVTTSNYANWVQQKPGQAPRGLIGGTNKRAPGVPARFSGSLLGDKAALTLLGAQPEDEAEYFCALWYSNLWVFGGGTKLTVL	6 fold	
CD3 antibody VH-Y61C conjugated through the cleavable linker peptide with R1 = PEG10K (Table 3) (antibody, V domains shown, Cys 61 conjugated with cleavable linker peptide P carrying blocker PEG10K, also called VH-61 Y61C PEG10K) VH: EVQLVESGGGLVQPGGSLRLSCAASGFTFSTYAMNWVRQAPGKGLEWVGRIRSKYNNYATCYADSVKDRFTISRDDSKNSLYLQMNSLKTEDTAVYYCARHGNFGNSYVSWFAYWGQGTLVTVSS VL: QTVVTQEPSLTVSPGGTVTLTCRSSTGAVTTSNYANWVQQKPGQAPRGLIGGTNKRAPGVPARFSGSLLGDKAALTLLGAQPEDEAEYFCALWYSNLWVFGGGTKLTVL		Blocking fold after conjugation [2]: 20 fold
CD3 antibody VH-Y61C PEG40K conjugate after activation (Table 3) (antibody, V domains shown, Cys 61: PEG40K blocker released by activation (cleavage of the linker peptide); what remains on Cys 61 is not stated) VH: EVQLVESGGGLVQPGGSLRLSCAASGFTFSTYAMNWVRQAPGKGLEWVGRIRSKYNNYATCYADSVKDRFTISRDDSKNSLYLQMNSLKTEDTAVYYCARHGNFGNSYVSWFAYWGQGTLVTVSS VL: QTVVTQEPSLTVSPGGTVTLTCRSSTGAVTTSNYANWVQQKPGQAPRGLIGGTNKRAPGVPARFSGSLLGDKAALTLLGAQPEDEAEYFCALWYSNLWVFGGGTKLTVL		Recovery of binding force after activation (%) [3]: 100%
CD3 antibody VH-Y61C conjugated through the cleavable linker peptide with R1 = PEG5K (Table 3) (antibody, V domains shown, Cys 61 conjugated with cleavable linker peptide P carrying blocker PEG5K, also called VH-61 Y61C PEG5K) VH: EVQLVESGGGLVQPGGSLRLSCAASGFTFSTYAMNWVRQAPGKGLEWVGRIRSKYNNYATCYADSVKDRFTISRDDSKNSLYLQMNSLKTEDTAVYYCARHGNFGNSYVSWFAYWGQGTLVTVSS VL: QTVVTQEPSLTVSPGGTVTLTCRSSTGAVTTSNYANWVQQKPGQAPRGLIGGTNKRAPGVPARFSGSLLGDKAALTLLGAQPEDEAEYFCALWYSNLWVFGGGTKLTVL		Blocking fold after conjugation [2]: 10 fold
CD3 antibody VH-Y61C conjugated through the cleavable linker peptide with R1 = PEG40K (Table 3) (antibody, V domains shown, Cys 61 conjugated with cleavable linker peptide P carrying blocker PEG40K, also called VH-61 Y61C PEG40K) VH: EVQLVESGGGLVQPGGSLRLSCAASGFTFSTYAMNWVRQAPGKGLEWVGRIRSKYNNYATCYADSVKDRFTISRDDSKNSLYLQMNSLKTEDTAVYYCARHGNFGNSYVSWFAYWGQGTLVTVSS VL: QTVVTQEPSLTVSPGGTVTLTCRSSTGAVTTSNYANWVQQKPGQAPRGLIGGTNKRAPGVPARFSGSLLGDKAALTLLGAQPEDEAEYFCALWYSNLWVFGGGTKLTVL		Blocking fold after conjugation [2]: 500 fold
CD3 antibody VH-Y61C PEG10K conjugate after activation (Table 3) (antibody, V domains shown, Cys 61: PEG10K blocker released by activation (cleavage of the linker peptide); what remains on Cys 61 is not stated) VH: EVQLVESGGGLVQPGGSLRLSCAASGFTFSTYAMNWVRQAPGKGLEWVGRIRSKYNNYATCYADSVKDRFTISRDDSKNSLYLQMNSLKTEDTAVYYCARHGNFGNSYVSWFAYWGQGTLVTVSS VL: QTVVTQEPSLTVSPGGTVTLTCRSSTGAVTTSNYANWVQQKPGQAPRGLIGGTNKRAPGVPARFSGSLLGDKAALTLLGAQPEDEAEYFCALWYSNLWVFGGGTKLTVL		Recovery of binding force after activation (%) [3]: 100%
CD3 antibody VH-Y61C PEG5K conjugate after activation (Table 3) (antibody, V domains shown, Cys 61: PEG5K blocker released by activation (cleavage of the linker peptide); what remains on Cys 61 is not stated) VH: EVQLVESGGGLVQPGGSLRLSCAASGFTFSTYAMNWVRQAPGKGLEWVGRIRSKYNNYATCYADSVKDRFTISRDDSKNSLYLQMNSLKTEDTAVYYCARHGNFGNSYVSWFAYWGQGTLVTVSS VL: QTVVTQEPSLTVSPGGTVTLTCRSSTGAVTTSNYANWVQQKPGQAPRGLIGGTNKRAPGVPARFSGSLLGDKAALTLLGAQPEDEAEYFCALWYSNLWVFGGGTKLTVL		Recovery of binding force after activation (%) [3]: 100%
CD3 antibody VH-Y61C PEG20K conjugate after activation (Table 3) (antibody, V domains shown, Cys 61: PEG20K blocker released by activation (cleavage of the linker peptide); what remains on Cys 61 is not stated) VH: EVQLVESGGGLVQPGGSLRLSCAASGFTFSTYAMNWVRQAPGKGLEWVGRIRSKYNNYATCYADSVKDRFTISRDDSKNSLYLQMNSLKTEDTAVYYCARHGNFGNSYVSWFAYWGQGTLVTVSS VL: QTVVTQEPSLTVSPGGTVTLTCRSSTGAVTTSNYANWVQQKPGQAPRGLIGGTNKRAPGVPARFSGSLLGDKAALTLLGAQPEDEAEYFCALWYSNLWVFGGGTKLTVL		Recovery of binding force after activation (%) [3]: 100%
CD3 antibody VH-Y61C conjugated through the cleavable linker peptide with R1 = PEG20K (Table 3) (antibody, V domains shown, Cys 61 conjugated with cleavable linker peptide P carrying blocker PEG20K, may be the same molecule as m19 (same value 400) or as CD3-Her2+20k; also called VH-61 Y61C PEG20K) VH: EVQLVESGGGLVQPGGSLRLSCAASGFTFSTYAMNWVRQAPGKGLEWVGRIRSKYNNYATCYADSVKDRFTISRDDSKNSLYLQMNSLKTEDTAVYYCARHGNFGNSYVSWFAYWGQGTLVTVSS VL: QTVVTQEPSLTVSPGGTVTLTCRSSTGAVTTSNYANWVQQKPGQAPRGLIGGTNKRAPGVPARFSGSLLGDKAALTLLGAQPEDEAEYFCALWYSNLWVFGGGTKLTVL		Blocking fold after conjugation [2]: 400 fold
anti-CD3 antibody mutant VH-Y61C conjugated with Molecule I (+20K) (antibody, V domains shown, Cys 61 conjugated with Molecule I (+20K), also called VH-61 Y61 (+20K)) VH: EVQLVESGGGLVQPGGSLRLSCAASGFTFSTYAMNWVRQAPGKGLEWVGRIRSKYNNYATCYADSVKDRFTISRDDSKNSLYLQMNSLKTEDTAVYYCARHGNFGNSYVSWFAYWGQGTLVTVSS VL: QTVVTQEPSLTVSPGGTVTLTCRSSTGAVTTSNYANWVQQKPGQAPRGLIGGTNKRAPGVPARFSGSLLGDKAALTLLGAQPEDEAEYFCALWYSNLWVFGGGTKLTVL	400 fold	
anti-CD3 antibody mutant VL-Y34C conjugated with Molecule I (+20K) (antibody, V domains shown, Cys 34 conjugated with Molecule I (+20K), also called VL-34 Y34 (+20K)) VH: EVQLVESGGGLVQPGGSLRLSCAASGFTFSTYAMNWVRQAPGKGLEWVGRIRSKYNNYATYYADSVKDRFTISRDDSKNSLYLQMNSLKTEDTAVYYCARHGNFGNSYVSWFAYWGQGTLVTVSS VL: QTVVTQEPSLTVSPGGTVTLTCRSSTGAVTTSNCANWVQQKPGQAPRGLIGGTNKRAPGVPARFSGSLLGDKAALTLLGAQPEDEAEYFCALWYSNLWVFGGGTKLTVL	8 fold	
anti-CD3 antibody mutant VL-R56C conjugated with Molecule I (+20K) (antibody, V domains shown, Cys 56 conjugated with Molecule I (+20K), also called VL-56 R56 (+20K)) VH: EVQLVESGGGLVQPGGSLRLSCAASGFTFSTYAMNWVRQAPGKGLEWVGRIRSKYNNYATYYADSVKDRFTISRDDSKNSLYLQMNSLKTEDTAVYYCARHGNFGNSYVSWFAYWGQGTLVTVSS VL: QTVVTQEPSLTVSPGGTVTLTCRSSTGAVTTSNYANWVQQKPGQAPRGLIGGTNKCAPGVPARFSGSLLGDKAALTLLGAQPEDEAEYFCALWYSNLWVFGGGTKLTVL	6 fold	
anti-CD3 antibody mutant VL-K55C conjugated with Molecule I (+20K) (antibody, V domains shown, Cys 55 conjugated with Molecule I (+20K), also called VL-55 K55 (+20K)) VH: EVQLVESGGGLVQPGGSLRLSCAASGFTFSTYAMNWVRQAPGKGLEWVGRIRSKYNNYATYYADSVKDRFTISRDDSKNSLYLQMNSLKTEDTAVYYCARHGNFGNSYVSWFAYWGQGTLVTVSS VL: QTVVTQEPSLTVSPGGTVTLTCRSSTGAVTTSNYANWVQQKPGQAPRGLIGGTNCRAPGVPARFSGSLLGDKAALTLLGAQPEDEAEYFCALWYSNLWVFGGGTKLTVL	5 fold	
anti-CD3 antibody mutant VL-W93C conjugated with Molecule I (+20K) (antibody, V domains shown, Cys 93 conjugated with Molecule I (+20K), also called VL-93 W93 (+20K)) VH: EVQLVESGGGLVQPGGSLRLSCAASGFTFSTYAMNWVRQAPGKGLEWVGRIRSKYNNYATYYADSVKDRFTISRDDSKNSLYLQMNSLKTEDTAVYYCARHGNFGNSYVSWFAYWGQGTLVTVSS VL: QTVVTQEPSLTVSPGGTVTLTCRSSTGAVTTSNYANWVQQKPGQAPRGLIGGTNKRAPGVPARFSGSLLGDKAALTLLGAQPEDEAEYFCALCYSNLWVFGGGTKLTVL	5 fold	
anti-CD3 antibody mutant VL-N96C conjugated with Molecule I (+20K) (antibody, V domains shown, Cys 96 conjugated with Molecule I (+20K), also called VL-96 N96 (+20K)) VH: EVQLVESGGGLVQPGGSLRLSCAASGFTFSTYAMNWVRQAPGKGLEWVGRIRSKYNNYATYYADSVKDRFTISRDDSKNSLYLQMNSLKTEDTAVYYCARHGNFGNSYVSWFAYWGQGTLVTVSS VL: QTVVTQEPSLTVSPGGTVTLTCRSSTGAVTTSNYANWVQQKPGQAPRGLIGGTNKRAPGVPARFSGSLLGDKAALTLLGAQPEDEAEYFCALWYSCLWVFGGGTKLTVL	2 fold	
anti-CD3 antibody mutant VL-N54C conjugated with Molecule I (+20K) (antibody, V domains shown, Cys 54 conjugated with Molecule I (+20K), also called VL-54 N54 (+20K)) VH: EVQLVESGGGLVQPGGSLRLSCAASGFTFSTYAMNWVRQAPGKGLEWVGRIRSKYNNYATYYADSVKDRFTISRDDSKNSLYLQMNSLKTEDTAVYYCARHGNFGNSYVSWFAYWGQGTLVTVSS VL: QTVVTQEPSLTVSPGGTVTLTCRSSTGAVTTSNYANWVQQKPGQAPRGLIGGTCKRAPGVPARFSGSLLGDKAALTLLGAQPEDEAEYFCALWYSNLWVFGGGTKLTVL	12 fold	
anti-CD3 antibody mutant VL-Y94C conjugated with Molecule I (+20K) (antibody, V domains shown, Cys 94 conjugated with Molecule I (+20K), also called VL-94 Y94 (+20K)) VH: EVQLVESGGGLVQPGGSLRLSCAASGFTFSTYAMNWVRQAPGKGLEWVGRIRSKYNNYATYYADSVKDRFTISRDDSKNSLYLQMNSLKTEDTAVYYCARHGNFGNSYVSWFAYWGQGTLVTVSS VL: QTVVTQEPSLTVSPGGTVTLTCRSSTGAVTTSNYANWVQQKPGQAPRGLIGGTNKRAPGVPARFSGSLLGDKAALTLLGAQPEDEAEYFCALWCSNLWVFGGGTKLTVL	30 fold	
